pKd: −log10 of the molar value.
What was measured:
[1] = target: full-length GST–MLV IN(1–408) (murine leukemia virus (MLV)); test: pull-down
[2] = system: 6xHis-Brd4(1-720) (human); test: streptavidin bead pull-down, Coomassie, Hill fit; settings: no added Mg2+; DNA pull-down: 50 mM HEPES pH 7.5, 100 mM NaCl, 0.5% NP40, 2 mM BME, 8.3 uM DNA; HTRF: 25 mM Tris pH 7.4, 150 mM NaCl, 2 mM MgCl2, 0.1% NP40, 1 mg/ml BSA …

Sequence of full-length GST–MLV IN(1–408) (murine leukemia virus (MLV)) (P03355 1331-1738 limits assumed): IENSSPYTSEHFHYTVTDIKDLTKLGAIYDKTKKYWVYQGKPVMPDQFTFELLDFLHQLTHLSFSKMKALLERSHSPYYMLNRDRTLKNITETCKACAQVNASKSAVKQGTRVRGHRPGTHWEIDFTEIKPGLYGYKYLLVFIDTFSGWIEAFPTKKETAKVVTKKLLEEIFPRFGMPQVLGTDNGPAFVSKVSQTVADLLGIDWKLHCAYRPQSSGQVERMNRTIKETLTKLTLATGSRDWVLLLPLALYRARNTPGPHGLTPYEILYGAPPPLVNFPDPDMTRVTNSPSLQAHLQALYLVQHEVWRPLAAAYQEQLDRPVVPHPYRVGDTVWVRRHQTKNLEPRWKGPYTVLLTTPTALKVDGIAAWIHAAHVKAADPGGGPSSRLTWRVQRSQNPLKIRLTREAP

Substance | pKd [1] | pKd [2]
6xHis–Brd4 ET(600–678) (from UniProt O60885 600-678) (domain or fragment) | 6.69 | 
6xHis–cBrd4(462–720) (from UniProt O60885 462-720) (domain or fragment) | 7.11 | 
6xHis–Brd4 B/BID(462–599) (from UniProt O60885 462-599) (domain or fragment) | < 5.70 | 
6xHis–Brd4(1–720) (from UniProt O60885 1-720) (natural protein) | 7.23 | 
6xHis–nBrd4(1–461) (from UniProt O60885 1-461) (domain or fragment) | < 5.70 | 
40-bp SMYD1 DNA |  | 5.67
6xHis–Brd4 ET/SEED(600–720) (from UniProt O60885 600-720) (domain or fragment) | 6.69 | 

— publication PMC4005663
